Measured values published in paper PMC5574378.

Columns and labels:
[1] = molecular target: arsenite oxidase (Aio) from Rhizobium sp. str. NT-26, wild type (Rhizobium sp. str. NT-26)
[2] = molecular target: arsenite oxidase (Aio) from Rhizobium sp. str. NT-26, wild type (Rhizobium sp. str. NT-26); experiment: ITC; 750 μM reduced cytochrome c in the syringe injected (1.5 or 2 μL) into 75 μM reduced Aio in the cell; 50 mM Tris-HCl (pH 8), no NaCl, 25 °C; 1:1 binding fit; three enzyme preparations
[3] = molecular target: arsenite oxidase (Aio) from Rhizobium sp. str. NT-26 with the AioB-F108A substitution (Rhizobium sp. str. NT-26); experiment: as above

With “horse heart cytochrome c (from UniProt P00004 1-105) (natural protein)” the KM for cytochrome c, steady-state kinetics of Aio with 2.5 mM arsenite and 0.5-10 μM cytochrome c [1] was 1 µM, the Kd [2] was 2300 nM and the dH (kcal mol^(− 1)) [2] was 6. It also gave a stoichiometry N [2] of 0.85, a Kd [3] of 7.8 µM and a dH (kcal mol^(− 1)) [3] of 3. The stoichiometry N [3] was 0.82.
